For orientation: koff means a measure of how fast the partners let go of each other. A low value points to slow dissociation. One may read the kon as the second-order rate constant of association. Read a high kon as faster complex formation. The Kd is the constant that tells how readily two partners part at equilibrium. As a reminder, the EC50 (read off the curve) is the concentration that produces a half-maximal response. Read a high EC50 (read off the curve) as a less potent agent.

Square brackets hold non-standard residues; d marks the D form. Ends that are not written are not given here. Cit = NC(=O)NCCC[C@H](N)C(=O)O

Here are results for five molecules from patent publication US20200399355A1 (University of California, published 2020).

The target in test [1] is biotinylated CV peptide (Innovagen), CV60-75, on streptavidin. In words: flow cytometry of transduced Tregs stained with biotinylated-CV-peptide/streptavidin-FITC tetramer (y axis, 'CAR+ cells') and EGFRt antibody (x axis); number printed under the right half of the panel, taken as the lower right quadrant. In general terms: In flow cytometry, cells or beads pass a laser one at a time.

For test [2] the target is unchanged. Nature of the test: flow cytometry of transduced Tregs stained with biotinylated-CV-peptide/streptavidin-FITC tetramer (y axis, 'CAR+ cells') and EGFRt antibody (x axis).
The target of test [3] is T1, Human CV peptide 60-75 (biotinylated citrullinated vimentin peptide) (human, also: biotinylated, position not given here).
T1 construct: Captured through biotin on streptavidin (ELISA plate or SPR chip); also called human citrullinated vimentin
T1 peptide: VYAT[Cit]SSAV[Cit]L[Cit]SSVP
In words: SPR (Biacore T100), biotinylated CV peptide on streptavidin-coated sensor chip, scFv injected from 400nM down to 12.5nM; fit table under the sensorgrams, column kd (1/s). On the procedure:
(§1) Assessment of the binding specificity and affinity of BVCA1 antibodies and scFv to CV peptide: The binding specificity of BVCA1 IgG and scFv were assessed by ELISA. 96-well ELISA plates were coated 0/N at 4° C. with 50 μl Streptavidin at 10m/ml. Wells were washed three times and blocked with 2000 of 1×PBS 1% BSA for 1 h at RT and washed again. 1000 of biotinylated peptides at 10 ug/ml diluted in PBS 1% BSA were added and incubated for 1 h at RT. Wells were then washed three times. 1000 of BVCA1 IgG or scFv or isotype control were added at various concentrations (serial dilution). […] Reaction was stopped with 50 11.1 of NaOH 3M after 15 to 30 min and absorbance was read in a microplate reader at 405 nm. Kinetics and affinities of BVCA1 Ig and scFv to CV peptide were analyzed by surface plasmon resonance using Biacore T100 (GE healthcare). […]

The target of test [4] is T1, Human CV peptide 60-75 (biotinylated …). Nature of the test: SPR (Biacore T100), biotinylated CV peptide on streptavidin-coated sensor chip, scFv injected from 400nM down to 12.5nM; fit table under the sensorgrams, column ka (1/Ms). On the procedure: as §1
Test [5] has the same target. Nature of the test: SPR (Biacore T100), biotinylated CV peptide on streptavidin-coated sensor chip, scFv injected from 400nM down to 12.5nM; fit table under the sensorgrams, column KD (M). On the procedure: as §1
(Surface plasmon resonance follows binding to a sensor surface in real time, without labels.)

The target is the same in test [6]. In words: ELISA, biotinylated peptide on streptavidin-coated plate, scFv detected with anti-c-Myc 9E10 and anti-mouse IgG-AP, absorbance 405 nm. The method, then:
as §1
In general terms: In an ELISA, binding on a coated surface is turned into a signal by an enzyme label.

Test [7] addresses T2, Murine CV peptide 60-75 (biotinylated citrullinated vimentin peptide) (murine, also: biotinylated, position not given here).
T2 construct: Captured through biotin on streptavidin in ELISA; also called murine citrullinated vimentin
T2 peptide: AYVT[Cit]SSAV[Cit]L[Cit]SSVP
Described as above. On the procedure: as §1

Test [8] concerns the target T1, Human CV peptide 60-75 (biotinylated …). Nature of the test: SPR (Biacore T100), biotinylated CV peptide immobilised on streptavidin-coated chip, scFv injected. On the procedure:
as §1

Molecule CD19.28z-CAR on human Tregs had a % of cells CVpep-SA-FITC- EGFRt+ (lower right quadrant; the number stands below the panel) in test [1] of 72.9%. For the same molecule, in test [2], the % of cells CVpep-SA-FITC+ EGFRt+ (upper right quadrant) amounted to 1.5% and the % of cells CVpep-SA-FITC+ EGFRt- (upper left quadrant) was determined as 0.1%.

On to CD19.41BBz-CAR on human Tregs, for which the % of cells CVpep-SA-FITC- EGFRt+ (lower right quadrant; the number stands below the panel) in test [1] came to 63.4%. The molecule also showed a % of cells CVpep-SA-FITC+ EGFRt+ (upper right quadrant) in test [2] of 0.5%.

B1: CV.41BBz-CAR (Anti-CV CAR-41BBz) on human Tregs (protein)
chain: EVKLIESGGGLVEPGRSLRLACTTSGFTFADYGLSWFRQGPGKGLEWVGFTGPKHLGETTECAPSVEDRCTISRDDSKSTVYLQMHRLQHEDTAVYFCVGPWFGDLLMWGQGTLVTVSSASSGGSTSGSGKPGSGEGSSGSARAIQMTQSPSSLSASVGDRVSITCRATQDISTSLGWYHQRPGKAPRLLIYGASKVQTGVPSRFSGNGSGTEFTLTISSLQPEDIGTYYCLQDDGFPFTVGQGTKLDIKRAAAIEVMYPPPYLDNEKSNGTIIHVKGKHLCPSPLFPGPSKPFWVLVVVGGVLACYSLLVTVAFIIFWVKRGRKKLLYIFKQPFMRPVQTTQEEDGCSCRFPEEEEGGCELRVKFSRSADAPAYQQGQNQLYNELNLGRREEYDVLDKRRGRDPEMGGKPRRKNPQEGLYNELQKDKMAEAYSEIGMKGERRRGKGHDGLYQGLSTATKDTYDALHMQALPPR
In test [2], B1 displayed a % of cells CVpep-SA-FITC+ EGFRt+ (upper right quadrant) of 55.4%, a % of cells CVpep-SA-FITC+ EGFRt- (upper left quadrant) of 0.6% and a % of cells CVpep-SA-FITC- EGFRt+ (lower right quadrant) of 18.9%.

B2: BVCA1 scFv (soluble CV-specific scFv, VH-linker-VL) (scFv)
scFv: EVKLIESGGGLVEPGRSLRLACTTSGFTFADYGLSWFRQGPGKGLEWVGFTGPKHLGETTECAPSVEDRCTISRDDSKSTVYLQMHRLQHEDTAVYFCVGPWFGDLLMWGQGTLVTVSSASSGGSTSGSGKPGSGEGSSGSARAIQMTQSPSSLSASVGDRVSITCRATQDISTSLGWYHQRPGKAPRLLIYGASKVQTGVPSRFSGNGSGTEFTLTISSLQPEDIGTYYCLQDDGFPFTVGQGTKLDIKRAAA
notes: Produced in E. coli periplasm; also called anti-CV scFv; single-chain variable fragment (scFv) synthesized from BVCA1 antibody; not shown: tags of the pSYN-expressed protein (detected with anti-c-Myc 9E10, purified on Ni-NTA)
Turning to B2, the koff in test [3] came to 0.00377 s⁻¹. The same molecule gave a kon in test [4] of 19000 M⁻¹ s⁻¹. Further, the Kd in test [5] and in test [8] was 198 nM in each case. Further, the “EC50 (read off the curve)” value in test [6] and in test [7] was approximately 2 ng/mL each time.

B3: CV.28z-CAR (Anti-CV CAR-CD28z) on human Tregs (protein)
chain: EVKLIESGGGLVEPGRSLRLACTTSGFTFADYGLSWFRQGPGKGLEWVGFTGPKHLGETTECAPSVEDRCTISRDDSKSTVYLQMHRLQHEDTAVYFCVGPWFGDLLMWGQGTLVTVSSASSGGSTSGSGKPGSGEGSSGSARAIQMTQSPSSLSASVGDRVSITCRATQDISTSLGWYHQRPGKAPRLLIYGASKVQTGVPSRFSGNGSGTEFTLTISSLQPEDIGTYYCLQDDGFPFTVGQGTKLDIKRAAAIEVMYPPPYLDNEKSNGTIIHVKGKHLCPSPLFPGPSKPFWVLVVVGGVLACYSLLVTVAFIIFWVRSKRSRLLHSDYMNMTPRRPGPTRKHYQPYAPPRDFAAYRSRVKFSRSADAPAYQQGQNQLYNELNLGRREEYDVLDKRRGRDPEMGGKPRRKNPQEGLYNELQKDKMAEAYSEIGMKGERRRGKGHDGLYQGLSTATKDTYDALHMQALPPR
For B3, in test [2], the % of cells CVpep-SA-FITC+ EGFRt+ (upper right quadrant) came to 47.5%, the % of cells CVpep-SA-FITC+ EGFRt- (upper left quadrant) was 0.6% and the % of cells CVpep-SA-FITC- EGFRt+ (lower right quadrant) worked out at 20.7%.
